Key:
HA-GSK3β (wild-type) = HA-GSK3β (wild-type) (UniProt P49841); assay: co-IP; HEK293T transfected with HA-GSK3β-WT; anti-HA beads washed in TBS, then RNase A treatment (200 μg/ml) for 15 min at 4°C; blots for p72, DGCR8, Drosha and HA
HA-GSK3β-K85R = HA-GSK3β-K85R (UniProt P49841); assay: co-IP; HEK293T transfected with HA-GSK3β-WT, -S9A, -K85R or -K85A,K86A; lysates pre-cleared, EZView anti-HA agarose beads, 4°C overnight; blots for p72, DGCR8 and HA

percent reduction of co-precipitation after RNase A treatment (HA-GSK3β (wild-type)): > 50% | percent reduction of co-precipitation against GSK3β-WT (HA-GSK3β-K85R): 60%
Substance: p72 (DDX17) (endogenous) (natural protein)

From article PMC5389555
